This is an account of results in patent publication US20120087917A1.

Assay [1] addresses LOXL2 (lysyl oxidase-like 2) (human) (UniProt Q9Y4K0). The assay can be described thus: cell-based or functional assay.
Assay [2] has the same target. The assay can be described thus: SPR, Bio-Rad ProteOn, amine coupling, 25 C. A general note: In SPR one partner is held on a chip, and binding of the other changes the refractive index at the surface.

Sequence of LOXL2 (lysyl oxidase-like 2) (human) (Q9Y4K0 26-774 limits assumed): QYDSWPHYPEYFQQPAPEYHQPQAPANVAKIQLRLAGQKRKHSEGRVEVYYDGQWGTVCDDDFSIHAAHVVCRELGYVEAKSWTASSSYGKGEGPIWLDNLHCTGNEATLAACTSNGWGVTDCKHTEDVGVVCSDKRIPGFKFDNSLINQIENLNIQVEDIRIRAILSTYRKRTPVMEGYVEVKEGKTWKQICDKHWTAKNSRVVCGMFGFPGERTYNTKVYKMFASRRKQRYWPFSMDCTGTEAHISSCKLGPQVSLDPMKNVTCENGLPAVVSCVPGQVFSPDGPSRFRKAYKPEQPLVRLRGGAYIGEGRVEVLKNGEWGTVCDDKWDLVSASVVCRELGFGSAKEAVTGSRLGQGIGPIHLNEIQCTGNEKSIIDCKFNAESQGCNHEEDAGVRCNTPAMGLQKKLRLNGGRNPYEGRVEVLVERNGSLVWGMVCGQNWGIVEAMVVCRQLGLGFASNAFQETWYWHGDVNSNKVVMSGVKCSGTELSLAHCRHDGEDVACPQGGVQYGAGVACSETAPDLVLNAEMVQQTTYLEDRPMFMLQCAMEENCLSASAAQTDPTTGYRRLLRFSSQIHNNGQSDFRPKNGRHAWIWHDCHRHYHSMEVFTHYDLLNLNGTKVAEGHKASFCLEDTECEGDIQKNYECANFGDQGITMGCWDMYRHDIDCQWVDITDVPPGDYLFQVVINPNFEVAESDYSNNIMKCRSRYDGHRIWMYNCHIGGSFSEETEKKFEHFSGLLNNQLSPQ

B1: anti-LOXL2 antibody AB0023 (murine monoclonal antibody) (antibody, V domains shown)
VH: QVQLQQSGAELVRPGTSVKVSCKASGYAFTYYLIEWVKQRPGQGLEWIGVINPGSGGTNYNEKFKGKATLTADKSSSTAYMQLSSLTSDDSAVYFCARNWMNFDYWGQGTTLTVSS
VL: DIVMTQAAPSVSVTPGESVSISCRSSKSLLHSNGNTYLYWFLQRPGQSPQFLIYRMSNLASGVPDRFSGSGSGTAFTLRISRVEAEDVGVYYCMQHLEYPYTFGGGTKLEIK
Consider B1, for which, in assay [1], the apparent IC50, LOXL2 enzymatic activity (amplex red/HRP coupled assay, 1,5-diaminopentane substrate) came to 30 nM; the α (effect of the antibody on substrate affinity; mode of inhibition) amounted to 1; the β (effect of the antibody on the rate of the enzyme; mode of inhibition) is 0.5. Moreover, in assay [2], the dissociation constant (Kd) lay within 0.1 to 1 nM and the t1/2 stood at 1.65 h.

For orientation: Kd means the constant that tells how readily two partners part at equilibrium. A higher Kd goes with weaker binding.
